{"source": "paper PMC3203615", "molecular_target": "isolated C-terminal domain (CTD, 213-288) of HIV-1 integrase (HIV-1)", "assay": "SEC"}
{"substance": "isolated C-terminal domain (CTD, 213-288) of HIV-1 integrase (domain or fragment)", "values": [{"measurement": "stoichiometry N", "result": 2}]}
